Read-outs that look alike come from different tables or passages of the source. Marks after values point to notes of the source that are not given here.

Broadly, the Kd is the free concentration of one partner at which half of the binding sites on the other are occupied at equilibrium, for simple one-to-one binding. The term Km denotes the concentration of substrate that gives half-maximal velocity.

One data set addresses T1, pea PBGS (Pisum sativum, UniProt P30124).
T1 sequence (P30124 69-398 limits assumed): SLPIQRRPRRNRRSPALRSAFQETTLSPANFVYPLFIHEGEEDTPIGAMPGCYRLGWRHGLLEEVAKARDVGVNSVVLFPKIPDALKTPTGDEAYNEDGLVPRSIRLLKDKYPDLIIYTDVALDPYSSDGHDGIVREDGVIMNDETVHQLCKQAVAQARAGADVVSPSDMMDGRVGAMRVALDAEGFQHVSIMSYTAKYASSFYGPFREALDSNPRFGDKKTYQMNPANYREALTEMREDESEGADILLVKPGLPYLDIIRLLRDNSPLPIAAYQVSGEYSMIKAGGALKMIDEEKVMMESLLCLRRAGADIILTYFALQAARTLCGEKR
The conditions noted are these: read-out: Kd for the allosteric magnesium of pea PBGS; cited from earlier work.

For data set [1], the target named is T2, human PBGS (Homo sapiens, UniProt P13716, C162A/K59N).
T2 construct: made in house; host or cells: E. coli BLR(DE3)
T2 sequence (P13716 1-330 K59N/C162A): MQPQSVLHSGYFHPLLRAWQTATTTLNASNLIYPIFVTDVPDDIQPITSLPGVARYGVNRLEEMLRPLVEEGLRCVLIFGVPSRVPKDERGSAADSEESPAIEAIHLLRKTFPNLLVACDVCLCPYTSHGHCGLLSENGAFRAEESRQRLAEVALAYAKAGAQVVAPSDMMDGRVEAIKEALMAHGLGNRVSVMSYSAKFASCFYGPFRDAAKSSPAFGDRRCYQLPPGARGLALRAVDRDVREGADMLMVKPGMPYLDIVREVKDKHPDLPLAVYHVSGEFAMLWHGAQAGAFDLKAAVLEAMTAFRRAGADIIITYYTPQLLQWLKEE
The data set is described as follows: kinetic characterization (Km, Vmax, specific activity) of human PBGS variants with substrate ALA. It counts as biochemical. The conditions noted are these: pH 9; Table 1; hexamer component. Here is the method: (§1) All kinetic determinations were carried out in 0.1 M bis-tris propane, 10 mM 2-mercaptoethanol, 10 μM Zn. For the pH rate profiles, the reported pH reflects the assay pH after the addition of 10 mM ALA-HCl. For Km and Vmax determinations, concentrations of ALA were 10 μM, 30 μM, 100 μM, 300 μM, 1 mM, 3 mM, and 10 mM and were each done in duplicate. […] All assays were at 37° C. for a fixed time using Ehrlich's reagent to determine porphobilinogen formed.
(§2) The kinetic parameters Km and Vmax of the S300 purified pools were determined at pH 7 and at pH 9 (Table 3 contains data for hetero-hexamers (Pool I) initially at 70% Leu and 30% Phe and for hetero-octamers (Pool II) initially at 30% Leu and 70% Phe). […] With the exception of the trace amount of octamer present for Pool I that is detected at pH 9, all the kinetic values are well determined (see Table 3). […] The factors that govern equilibration of human PBGS heteromers under assay conditions remain to be elucidated.
(§3) Km1 and Km2 (both mM) are interpreted as the Km for the octamer and hexamer, respectively.
(§4) Using freshly prepared hetero-oligomers of WT+F12L, the Pool I and Pool II proteins were separated chromatographically and then dialyzed for 24 hours at pH 7 in the presence of 10 mM ALA. Following dialysis, the re-equilibrated hetero-oligomers were again separated into their hexameric and octameric components by chromatography on a Mono-Q column. The separated proteins were characterized for their specific activity and for their Phe12 and Leu12 content. The specific activity of hexamer and octamer are dramatically different with hexamer showing optimal activity at pH 9 and the activity of octamer is maximal at pH 7 (Table 4). […] Following chromatographic separation, the proteins were called Pool I hexamer, Pool I octamer, Pool II hexamer, and Pool II octamer and are described below. The peak to elute first on the Mono-Q column runs comparably to the F12L mutant, which is the hexamer. The hexameric structure is substantiated by native gel electrophoresis and by specific activity at pH 7 and pH 9 (FIG. 26A and Table 4). The second peak to elute runs comparably to the WT human PBGS, which is the octamer. The octameric structure is substantiated by native gel electrophoresis and specific activity at pH 7 and pH 9 (FIG. 26A and Table 4). Consistent with the documented characteristics of human PBGS hexamers and octamers, Pool I hexamer and Pool II hexamer have very low activity at pH 7 and considerable activity at pH 9. Pool I octamer and Pool II octamer both show substantially higher activity at pH 7 than at pH 9.

In data set [2] the test system is human PBGS. The data set is described as above. It counts as biochemical. Here is the method: as §1, §2, §3, §4
The subject of data set [3] is human PBGS. The data set can be described thus: temperature dependence (Arrhenius plots) of hetero-hexamer to hetero-octamer conversion and of substrate turnover. The format is biochemical. The conditions noted are these: pH 7.0, 10 mM ALA-HCl. An excerpt:
To determine the free energy of activation for the conversion of hetero-hexamers to hetero-octamers, we took advantage of the dramatic differences in the activity of octameric (high activity) and hexameric (low activity) human PBGS at pH 7.0 (3, 5). Because of this difference, the transition from purified hetero-hexamers to a mixture of hetero-hexamers and hetero-octamers under turnover conditions is accompanied by a progressive increase in the specific activity; this process was monitored at several temperatures. Starting with purified hetero-hexamers, (FIG. 34a) the specific activity increased, which is fit to a first-order exponential as exemplified in FIG. 35b (5). […] The time-courses for conversion of hetero-hexamer to hetero-octamer were monitored by periodically removing aliquots from the incubations and immediately quantifying porphobilinogen using Ehrlich's reagent and calculating specific activities based on the total incubation time. […] An activation energy for hetero-hexamer to hetero-octamer conversion (Ea=63±5 kJ/mol) was determined from the slope of the plot. […] However, we previously monitored this process at 5 μg/ml and 0.9 mg/ml, two widely different enzyme concentrations, by specific activity increase and dynamic light scattering respectively. […]

Setting [4] is: pH 9, Table 3, read-out: Km2 (Km for the hexamer).

With `[Mg+2]` [magnesium], the Kd at pea PBGS is 2500 µM.

B1: WT: wild type human PBGS (parent N59/C162A), octameric, expressed in E. coli (protein)
chain: MQPQSVLHSGYFHPLLRAWQTATTTLNASNLIYPIFVTDVPDDIQPITSLPGVARYGVNRLEEMLRPLVEEGLRCVLIFGVPSRVPKDERGSAADSEESPAIEAIHLLRKTFPNLLVACDVCLCPYTSHGHCGLLSENGAFRAEESRQRLAEVALAYAKAGAQVVAPSDMMDGRVEAIKEALMAHGLGNRVSVMSYSAKFASCFYGPFRDAAKSSPAFGDRRCYQLPPGARGLALRAVDRDVREGADMLMVKPGMPYLDIVREVKDKHPDLPLAVYHVSGEFAMLWHGAQAGAFDLKAAVLEAMTAFRRAGADIIITYYTPQLLQWLKEE
As to B1, the Km2 with human PBGS [1] was 4.46 ± 0.80^a mM. Also, the Vmax2 with human PBGS [1] stood at 6.67 µM/h/mg; with human PBGS [2] (pH 9, Table 3), 6.67 ± 0.36 µmol/h/mg. For the same molecule, the “Specific activities before and after substrate induced disproportionation” value in the data set with human PBGS [2] (pH 7) was 56.9 µmol/h/mg; in the data set with human PBGS [2] (pH 9) it was 13.1 µmol/h/mg. Moreover, the Km1 in the data set with human PBGS [2] (pH 7, Table 1) turned out to be 0.25 ± 0.01 mM; in the data set with human PBGS [2] (pH 9, Table 1), 0.015 ± 0.001 mM. The Vmax1 worked out at 55.5 ± 0.2 in the data set on human PBGS [2] (pH 7, Table 1); 55.5 ± 0.2 µmol/h/mg in the data set with human PBGS [2] (pH 7, Table 3); 8.16 ± 0.13 in the data set with human PBGS [2] (pH 9, Table 1); 8.16 ± 0.13 µmol/h/mg in the data set on human PBGS [2] (pH 9, Table 3). Besides, the Km stood at 0.25 ± 0.01 mM in the data set on human PBGS [2] (pH 7, Table 3, read-out: Km1 (Km for the octamer)); 0.015 mM in the data set on human PBGS [2] (pH 9, Table 3, read-out: Km1 (Km for the octamer)); 4.46 ± 0.8 mM with human PBGS [2] (setting [4]). Moreover, in the data set on human PBGS [3], the “activation energy for substrate turnover” value worked out at 14.8 ± 0.24 kcal/mol.

B2: F12L: naturally occurring rare allele variant of human PBGS, hexameric, heterologously expressed in E. coli (protein)
chain: MQPQSVLHSGYLHPLLRAWQTATTTLNASNLIYPIFVTDVPDDIQPITSLPGVARYGVNRLEEMLRPLVEEGLRCVLIFGVPSRVPKDERGSAADSEESPAIEAIHLLRKTFPNLLVACDVCLCPYTSHGHCGLLSENGAFRAEESRQRLAEVALAYAKAGAQVVAPSDMMDGRVEAIKEALMAHGLGNRVSVMSYSAKFASCFYGPFRDAAKSSPAFGDRRCYQLPPGARGLALRAVDRDVREGADMLMVKPGMPYLDIVREVKDKHPDLPLAVYHVSGEFAMLWHGAQAGAFDLKAAVLEAMTAFRRAGADIIITYYTPQLLQWLKEE
Turning to B2, the “Specific activities before and after substrate induced disproportionation” value with human PBGS [2] (pH 7) is 0.3 µmol/h/mg; in the data set on human PBGS [2] (pH 9), 14.5 µmol/h/mg. Besides, the Km1 in the data set with human PBGS [2] (pH 7, Table 1) worked out at 17.7 ± 1.1 mM; in the data set with human PBGS [2] (pH 9, Table 1) it was 4.6 ± 0.1 mM. Further, the Vmax1 in the data set on human PBGS [2] (pH 7, Table 1) is 1.14 ± 0.05; in the data set with human PBGS [2] (pH 9, Table 1), 18.2 ± 0.02. The Vmax2 in the data set on human PBGS [2] (pH 7, Table 3) was determined as 1.14 ± 0.05 µmol/h/mg; with human PBGS [2] (pH 9, Table 3), 18.2 ± 0.2 µmol/h/mg. In addition, the Km in the data set with human PBGS [2] (pH 7, Table 3, read-out: Km2 (Km for the hexamer)) stood at 17.7 ± 1.1 mM; in the data set on human PBGS [2] (setting [4]), 4.6 ± 0.1 mM. In the data set with human PBGS [3], the “activation energy for substrate turnover” value is 10.8 ± 0.72 kcal/mol.

These data come from patent US8153410B2, “Alternate morpheein forms of allosteric proteins as a target for the development of bioactive molecules” (Fox Chase Cancer Center, priority 2003, dated 2012).
